Measurements from the supplement of paper PMC5998384.

Experiments:
HeLa Kyoto [1] = assay: thermal stability score vs G1/S (z-score of summed log2 fold changes over temperatures); higher = more thermally stable than in G1/S
HeLa Kyoto [2] = assay: solubility in G1/S (NP-40 vs SDS abundance) (log2 ratio); higher = more soluble; settings: cell cycle stage: G1/S
HeLa Kyoto [3] = assay: melting temperature (median over replicates), in situ; higher = more thermally stable
HeLa Kyoto [4] = assay: solubility change mitosis vs G1/S (difference of NP-40 vs SDS log2 ratios) (log2 ratio difference); higher = more soluble in mitosis
[5] = cell cycle stage: early G1 (4.5 h after nocodazole release)
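Wherever melting temperature (median over replicates), in situ is given: HeLa Kyoto cells synchronized by double thymidine or nocodazole block, proteins quantified by TMT10plex mass spectrometry, three independent biological replicates.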
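Wherever solubility change mitosis vs G1/S (difference of NP-40 vs SDS log2 ratios) is given: synchronized HeLa Kyoto cells (double thymidine block for G1/S, nocodazole release for mitosis), protein amounts in NP-40 versus SDS lysates quantified by mass spectrometry, three biological replicates.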
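Wherever solubility in G1/S (NP-40 vs SDS abundance) is given: HeLa Kyoto cells arrested at G1/S by double thymidine block, proteins quantified by TMT10plex mass spectrometry in mild NP-40 versus SDS extracts, three biological replicates.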
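Wherever thermal stability score vs G1/S (z-score of summed log2 fold changes over temperatures) is given: synchronized HeLa Kyoto cells, proteins quantified by TMT10plex mass spectrometry, three biological replicates, mitosis taken 0.5 h after nocodazole release, G1/S directly after double thymidine block.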

Sequence	thermal stability score (HeLa Kyoto [1]; [5])	thermal stability score (HeLa Kyoto [1]; cell cycle stage: mitosis)	solubility in G1/S (log2) (HeLa Kyoto [2])	melting temperature (HeLa Kyoto [3]; cell cycle stage: G1/S)	melting temperature (HeLa Kyoto [3]; cell cycle stage: mitosis)	solubility change mitosis (log2) (HeLa Kyoto [4])
MAAAGAFRLRRAASALLLRSPRLPARELSAPARLYHKKVVDHYENPRNVGSLDKTSKNVGTGLVGAPACGDVMKLQIQVDEKGKIVDARFKTFGCGSAIASSSLATEWVKGKTVEEALTIKNTDIAKELCLPPVKLHCSMLAEDAIKAALADYKLKQEPKKGEAEKK [ISCU]	-1.67	-2.36	0.467	53.3 °C	54 °C	0.0125
MAAALRVAAVGARLSVLASGLRAAVRSLCSQATSVNERIENKRRTALLGGGQRRIDAQHKRGKLTARERISLLLDPGSFVESDMFVEHRCADFGMAADKNKFPGDSVVTGRGRINGRLVYVFSQDFTVFGGSLSGAHAQKICKIMDQAITVGAPVIGLNDSGGARIQEGVESLAGYADIFLRNVTASGVIPQISLIMGPCAGGAVYSPALTDFTFMVKDTSYLFITGPDVVKSVTNEDVTQEELGGAKTHTTMSGVAHRAFENDVDALCNLRDFFNYLPLSSQDPAPVRECHDPSDRLVPELDTIVPLESTKAYNMVDIIHSVVDEREFFEIMPNYAKNIIVGFARMNGRTVGIVGNQPKVASGCLDINSSVKGARFVRFCDAFNIPLITFVDVPGFLPGTAQEYGGIIRHGAKLLYAFAEATVPKVTVITRKAYGGAYDVMSSKHLCGDTNYAWPTAEIAVMGAKGAVEIIFKGHENVEAAQAEYIEKFANPFPAAVRGFVDDIIQPSSTRARICCDLDVLASKKVQRPWRKHANIPL [PCCB]	-1.53	-1.91	-0.114	54.3 °C	54.9 °C	-0.114
MAAALWGFFPVLLLLLLSGDVQSSEVPGAAAEGSGGSGVGIGDRFKIEGRAVVPGVKPQDWISAARVLVDGEEHVGFLKTDGSFVVHDIPSGSYVVEVVSPAYRFDPVRVDITSKGKMRARYVNYIKTSEVVRLPYPLQMKSSGPPSYFIKRESWGWTDFLMNPMVMMMVLPLLIFVLLPKVVNTSDPDMRREMEQSMNMLNSNHELPDVSEFMTRLFSSKSSGKSSSGSSKTGKSGAGKRR [EMC7]	-1.44	-0.331	0.424	54.4 °C	54.1 °C	0.0594
MAAAPPLSKAEYLKRYLSGADAGVDRGSESGRKRRKKRPKPGGAGGKGMRIVDDDVSWTAISTTKLEKEEEEDDGDLPVVAEFVDERPEEVKQMEAFRSSAKWKLLGGHNEDLPSNRHFRHDTPDSSPRRVRHGTPDPSPRKDRHDTPDPSPRRARHDTPDPSPLRGARHDSDTSPPRRIRHDSSDTSPPRRARHDSPDPSPPRRPQHNSSGASPRRVRHDSPDPSPPRRARHGSSDISSPRRVHNNSPDTSRRTLGSSDTQQLRRARHDSPDLAPNVTYSLPRTKSGKAPERASSKTSPHWKESGASHLSFPKNSKYEYDPDISPPRKKQAKSHFGDKKQLDSKGDCQKATDSDLSSPRHKQSPGHQDSDSDLSPPRNRPRHRSSDSDLSPPRRRQRTKSSDSDLSPPRRSQPPGKKAAHMYSGAKTGLVLTDIQREQQELKEQDQETMAFEAEFQYAETVFRDKSGRKRNLKLERLEQRRKAEKDSERDELYAQWGKGLAQSRQQQQNVEDAMKEMQKPLARYIDDEDLDRMLREQEREGDPMANFIKKNKAKENKNKKVRPRYSGPAPPPNRFNIWPGYRWDGVDRSNGFEQKRFARLASKKAVEELAYKWSVEDM [BUD13]	0.0865	-0.687	-0.884	52.9 °C	53 °C	0.878
MAAARHSTLDFMLGAKADGETILKGLQSIFQEQGMAESVHTWQDHGYLATYTNKNGSFANLRIYPHGLVLLDLQSYDGDAQGKEEIDSILNKVEERMKELSQDSTGRVKRLPPIVRGGAIDRYWPTADGRLVEYDIDEVVYDEDSPYQNIKILHSKQFGNILILSGDVNLAESDLAYTRAIMGSGKEDYTGKDVLILGGGDGGILCEIVKLKPKMVTMVEIDQMVIDGCKKYMRKTCGDVLDNLKGDCYQVLIEDCIPVLKRYAKEGREFDYVINDLTAVPISTSPEEDSTWEFLRLILDLSMKVLKQDGKYFTQGNCVNLTEALSLYEEQLGRLYCPVEFSKEIVCVPSYLELWVFYTVWKKAKP [SMS]	-2.98	-1.47	0.398	56.6 °C	56.5 °C	-0.166
MAAATGDPGLSKLQFAPFSSALDVGFWHELTQKKLNEYRLDEAPKDIKGYYYNGDSAGLPARLTLEFSAFDMSAPTPARCCPAIGTLYNTNTLESFKTADKKLLLEQAANEIWESIKSGTALENPVLLNKFLLLTFADLKKYHFYYWFCYPALCLPESLPLIQGPVGLDQRFSLKQIEALECAYDNLCQTEGVTALPYFLIKYDENMVLVSLLKHYSDFFQGQRTKITIGVYDPCNLAQYPGWPLRNFLVLAAHRWSSSFQSVEVVCFRDRTMQGARDVAHSIIFEVKLPEMAFSPDCPKAVGWEKNQKGGMGPRMVNLSECMDPKRLAESSVDLNLKLMCWRLVPTLDLDKVVSVKCLLLGAGTLGCNVARTLMGWGVRHITFVDNAKISYSNPVRQPLYEFEDCLGGGKPKALAAADRLQKIFPGVNARGFNMSIPMPGHPVNFSSVTLEQARRDVEQLEQLIESHDVVFLLMDTRESRWLPAVIAASKRKLVINAALGFDTFVVMRHGLKKPKQQGAGDLCPNHPVASADLLGSSLFANIPGYKLGCYFCNDVVAPGDSTRDRTLDQQCTVSRPGLAVIAGALAVELMVSVLQHPEGGYAIASSSDDRMNEPPTSLGLVPHQIRGFLSRFDNVLPVSLAFDKCTACSSKVLDQYEREGFNFLAKVFNSSHSFLEDLTGLTLLHQETQAAEIWDMSDDETI [ATG7]	-0.14	0.0236	-0.177	51.3 °C	51.5 °C	-0.0691
MAAATGPSFWLGNETLKVPLALFALNRQRLCERLRKNPAVQAGSIVVLQGGEETQRYCTDTGVLFRQESFFHWAFGVTEPGCYGVIDVDTGKSTLFVPRLPASHATWMGKIHSKEHFKEKYAVDDVQYVDEIASVLTSQKPSVLLTLRGVNTDSGSVCREASFDGISKFEVNNTILHPEIVECRVFKTDMELEVLRYTNKISSEAHREVMKAVKVGMKEYELESLFEHYCYSRGGMRHSSYTCICGSGENSAVLHYGHAGAPNDRTIQNGDMCLFDMGGEYYCFASDITCSFPANGKFTADQKAVYEAVLRSSRAVMGAMKPGVWWPDMHRLADRIHLEELAHMGILSGSVDAMVQAHLGAVFMPHGLGHFLGIDVHDVGGYPEGVERIDEPGLRSLRTARHLQPGMVLTVEPGIYFIDHLLDEALADPARASFLNREVLQRFRGFGGVRIEEDVVVTDSGIELLTCVPRTVEEIEACMAGCDKAFTPFSGPK [PEPD]	-1.19	-2.41	-0.0689	54.1 °C	53.8 °C	-0.184
MAAAVGRLLRASVARHVSAIPWGISATAALRPAACGRTSLTNLLCSGSSQAKLFSTSSSCHAPAVTQHAPYFKGTAVVNGEFKDLSLDDFKGKYLVLFFYPLDFTFVCPTEIVAFSDKANEFHDVNCEVVAVSVDSHFSHLAWINTPRKNGGLGHMNIALLSDLTKQISRDYGVLLEGSGLALRGLFIIDPNGVIKHLSVNDLPVGRSVEETLRLVKAFQYVETHGEVCPANWTPDSPTIKPSPAASKEYFQKVNQ [PRDX3]	0.801	-1.38	0.452	58.2 °C	57.9 °C	-0.00401
MAAAVGVRGRYELPPCSGPGWLLSLSALLSVAARGAFATTHWVVTEDGKIQQQVDSPMNLKHPHDLVILMRQEATVNYLKELEKQLVAQKIHIEENEDRDTGLEQRHNKEDPDCIKAKVPLGDLDLYDGTYITLESKDISPEDYIDTESPVPPDPEQPDCTKILELPYSIHAFQHLRGVQERVNLSAPLLPKEDPIFTYLSKRLGRSIDDIGHLIHEGLQKNTSSWVLYNMASFYWRIKNEPYQVVECAMRALHFSSRHNKDIALVNLANVLHRAHFSADAAVVVHAALDDSDFFTSYYTLGNIYAMLGEYNHSVLCYDHALQARPGFEQAIKRKHAVLCQQKLEQKLEAQHRSLQRTLNELKEYQKQHDHYLRQQEILEKHKLIQEEQILRNIIHETQMAKEAQLGNHQICRLVNQQHSLHCQWDQPVRYHRGDIFENVDYVQFGEDSSTSSMMSVNFDVQSNQSDINDSVKSSPVAHSILWIWGRDSDAYRDKQHILWPKRADCTESYPRVPVGGELPTYFLPPENKGLRIHELSSDDYSTEEEAQTPDCSITDFRKSHTLSYLVKELEVRMDLKAKMPDDHARKILLSRINNYTIPEEEIGSFLFHAINKPNAPIWLILNEAGLYWRAVGNSTFAIACLQRALNLAPLQYQDVPLVNLANLLIHYGLHLDATKLLLQALAINSSEPLTFLSLGNAYLALKNISGALEAFRQALKLTTKCPECENSLKLIRCMQFYPFLYNITSSVCSGTVVEESNGSDEMENSDETKMSEEILALVDEFQQAWPLEGFGGALEMKGRRLDLQGIRVLKKGPQDGVARSSCYGDCRSEDDEATEWITFQVKRVKKPKGDHKKTPGKKVETGQIENGHRYQANLEITGPKVASPGPQGKKRDYQRLGWPSPDECLKLRWVELTAIVSTWLAVSSKNIDITEHIDFATPIQQPAMEPLCNGNLPTSMHTLDHLHGVSNRASLHYTGESQLTEVLQNLGKDQYPQQSLEQIGTRIAKVLEKNQTSWVLSSMAALYWRVKGQGKKAIDCLRQALHYAPHQMKDVPLISLANILHNAKLWNDAVIVATMAVEIAPHFAVNHFTLGNVYVAMEEFEKALVWYESTLKLQPEFVPAKNRIQTIQCHLMLKKGRRSP [TTC17]	2.32	2.24	0.107	54.8 °C	56.8 °C	0.0442
MAAAVPQRAWTVEQLRSEQLPKKDIIKFLQEHGSDSFLAEHKLLGNIKNVAKTANKDHLVTAYNHLFETKRFKGTESISKVSEQVKNVKLNEDKPKETKSEETLDEGPPKYTKSVLKKGDKTNFPKKGDVVHCWYTGTLQDGTVFDTNIQTSAKKKKNAKPLSFKVGVGKVIRGWDEALLTMSKGEKARLEIEPEWAYGKKGQPDAKIPPNAKLTFEVELVDID [FKBP3]	0.0401	-2.71	0.57	54.2 °C	54.4 °C	0.226
MAAAVSSVVRRVEELGDLAQAHIQQLSEAAGEDDHFLIRASAALEKLKLLCGEEKECSNPSNLLELYTQAILDMTYFEENKLVDEDFPEDSSSQKVKELISFLSEPEILVKENNMHPKHCNLLGDELLECLSWRRGALLYMYCHSLTKRREWLLRKSSLLKKYLLDGISYLLQMLNYRCPIQLNEGVSFQDLDTAKLLSAGIFSDIHLLAMMYSGEMCYWGSKYCADQQPENHEVDTSVSGAGCTTYKEPLDFREVGEKILKKYVSVCEGPLKEQEWNTTNAKQILNFFHHRCN [C5ORF51]	0.411	1.04	0.302	49.5 °C	49.9 °C	-0.0335
MAAAWGSSLTAATQRAVTPWPRGRLLTASLGPQARREASSSSPEAGEGQIRLTDSCVQRLLEITEGSEFLRLQVEGGGCSGFQYKFSLDTVINPDDRVFEQGGARVVVDSDSLAFVKGAQVDFSQELIRSSFQVLNNPQAQQGCSCGSSFSIKL [ISCA2]	-1.26	-2.06	0.276	51.6 °C	53.4 °C	-0.123
